1 molecule from publication PMC6414729 can be followed below.

Substrate in assay [1]: CB-PB phycobilisome (truncated phycobilisome of the CB mutant of Synechocystis PCC 6803) (Synechocystis PCC 6803) (UniProt Q01951)
Substrate in assay [2]: CB-PB phycobilisome (truncated phycobilisome of the CB mutant of Synechocystis PCC 6803) (Synechocystis PCC 6803) (UniProt Q01951)
The source holds these as a separate data set.

Substrate in assay [3]: CB-PB phycobilisome (truncated phycobilisome of the CB mutant of Synechocystis PCC 6803) (Synechocystis PCC 6803) (UniProt Q01951)
Put plainly: bulk fluorescence quenching (emission spectrum and lifetime decay); OCP:CB-PB 40:1 in 0.8 M phosphate buffer, illuminated with white light 10 min at 23 °C; bulk sample ~25 nM.

Compound in assay [4]: CB-PB phycobilisome (truncated phycobilisome of the CB mutant of Synechocystis PCC 6803) (Synechocystis PCC 6803) (UniProt Q01951)
The assay can be described thus: ABEL trap single-molecule fluorescence spectroscopy; pre-activated and pre-bound OCP + CB-PB (40:1) diluted to ~10 pM in 0.8 M phosphate buffer pH 7.5 with 1 M sucrose; single complexes in free solution; followed up to 5 h after dilution.

Some results are limits rather than exact numbers.

B1: Orange Carotenoid Protein, photoactivated red form (OCP^R) (natural protein)
chain: MPFTIDSARGIFPNTLAADVVPATIARFSQLNAEDQLALIWFAYLEMGKTLTIAAPGAASMQLAENALKEIQAMGPLQQTQAMCDLANRADTPLCRTYASWSPNIKLGFWYRLGELMEQGFVAPIPAGYQLSANANAVLATIQGLESGQQITVLRNAVVDMGFTAGKDGKRIAEPVVPPQDTASRTKVSIEGVTNATVLNYMDNLNANDFDTLIELFTSDGALQPPFQRPIVGKENVLRFFREECQNLKLIPERGVTEPAEDGFTQIKVTGKVQTPWFGGNVGMNIAWRFLLNPEGKIFFVAIDLLASPKELLNFA
Broadly, the stoichiometry N is a count of units in the complex or per binding partner. On to B1, for which, in assay [1], the bulk fluorescence emission of fully quenched OCP + CB-PB (40:1) relative to unquenched CB-PB was determined as 9% and the bulk fluorescence lifetime, shorter component of the quenched OCP + CB-PB complex (unquenched 1.6 ns) came out at 0.1 ns. Further, in assay [2], the brightness of quenched state Q1 relative to unquenched CB-PB was determined as 11% and the brightness of quenched state Q2 relative to unquenched CB-PB stood at 6%. In assay [3], the percent of complexes quenched was more than 95%. The stoichiometry N in assay [4] came out at 2.
